# Reference: the MegaScale stability set (Tsuboyama et al. 2023)
# B1: 5KPH (parent)
# chain: EEKRQVKQVAKEKLLEQSPNSKVQVRRVQKQGNTIRVELELRTNGKKENYTVEVERQGNTWTVKRITRT
# B2: EEHEE_rd3_0130 (parent)
# chain: TKIIVNGKTFTAPTEEEAQKIAEKLAKKAGLTVHKKNGTFELK
# Variants of: B1
# Test: folding stability dG (cDNA display proteolysis); higher = more stable
# Conditions: PBS, room temperature
row,Variant,folding stability dG [kcal/mol]
1,N49C,3.73
2,N49G,3.81
3,N49F,4.14
4,N49T,4.14
5,N49D,3.57
6,Q31A,3.75
7,Q31L,4.27
8,Q31H,4.3
9,Q31R,4.05
10,Q31I,4.42
11,K7S,4.63
12,K7E,4.5
13,K7L,4.49
14,K7F,4.07
15,K7G,4.38
16,S21M,2.75
17,S21Y,2.67
18,S21F,2.65
19,S21D,2.23
20,S21A,3.98
21,S21I,2.46
22,S21E,1.96
23,E1P,3.19
24,E1V,3.38
25,E1F,3
26,E1M,3.33

row,Variant,folding stability dG [kcal/mol]
1,K22R,3.85
2,K22I,4.01
3,W61L,3.64
4,W61V,2.9
5,W61P,1.94
6,W61A,2.23
7,W61E,0.848
8,E2K,2.91
9,E2V,3.73
10,E2A,3.63
11,E2W,4.05
12,R56L,3.84
13,R56S,3.26
14,R56N,2.97
15,R56F,3.83
16,R56Y,3.72
17,R56Q,3.51
18,R56C,3.59
19,L41K,2.73
20,L41D,2.04
21,L41C,3.37
22,L41I,3.59
23,L41Q,2.91
24,Q5E,3.88
25,Q5K,3.86
26,Q5M,4.07

row,Variant,folding stability dG [kcal/mol]
1,Q5H,3.77
2,R65H,3.58
3,R65K,4.01
4,R65V,3.54
5,R65E,3.61
6,K46C,3.6
7,K46Q,3.84
8,K46R,4.01
9,K46V,3.98
10,K46A,3.65
11,L15P,1.87
12,L15V,3.01
13,L15S,2.83
14,E12F,2.78
15,E12C,3.52
16,E12W,2.92
17,I66W,3.15
18,I66Q,1.95
19,I66D,0.142
20,I66G,0.993
21,T62D,3.13
22,T62Y,4.57
23,T62L,4.03
24,T62W,4.24
25,T62H,3.93
26,T62A,4.05

row,Variant,folding stability dG [kcal/mol]
1,V25A,2.95
2,V25W,2.7
3,V25S,1.84
4,V25F,3.77
5,V25T,2.85
6,V25D,1.17
7,V25M,2.63
8,V25P,2.2
9,Q17R,3.92
10,Q17N,3.69
11,Q17G,3.64
12,Q17E,3.31
13,Q17D,3.46
14,T69S,3.75
15,T69A,3.68
16,T69V,3.86
17,T69C,3.56
18,T69F,3.52
19,T69Y,4
20,Q24E,3.67
21,Q24C,3.83
22,Q24A,3.97
23,Q24I,4.3
24,Q24F,4.47
25,V54M,3.85
26,V54D,-0.632

row,Variant,folding stability dG [kcal/mol]
1,V54H,0.815
2,V54E,1.33
3,V54I,3.92
4,V9Y,3.38
5,V9P,1.9
6,V9M,3.83
7,V9C,3.28
8,V9K,3.39
9,V9W,2.74
10,V9H,2.88
11,R4C,3.57
12,R4S,3.72
13,R4W,3.79
14,R4F,3.64
15,R4K,3.9
16,R4A,3.86
17,E40C,3.51
18,E40A,3.52
19,E40Y,3.89
20,E40Q,3.91
21,E40R,3.46
22,G45N,3.55
23,G45W,3.66
24,G45S,3.75
25,G45K,3.4
26,G45V,2.85

row,Variant,folding stability dG [kcal/mol]
1,G45Y,3.55
2,G45C,3.29
3,R42E,4.12
4,R42C,3.54
5,Q57Y,4.03
6,Q57T,4.03
7,Q57W,3.83
8,Q57P,2.19
9,P19S,2.77
10,P19Q,2.85
11,P19R,2.76
12,P19Y,2.13
13,K13L,3.42
14,K13C,3.62
15,K13D,1.86
16,K13W,3.48
17,N20V,2.78
18,N20A,3.77
19,N20L,3.6
20,N20R,3.5
21,N20C,3.53
22,E38W,4.29
23,E38S,3.89
24,E38R,3.69
25,E38G,3.2

# Variants of: B2
# Test: as above
# Conditions: PBS, room temperature
row,Variant,folding stability dG [kcal/mol]
1,K43L,1.18
2,K43V,1.3
3,K43Y,1.15
4,K43R,1.07
5,K43I,1.33
6,K43W,1.16
7,K43S,0.91
8,K43N,0.532
9,K43M,0.985
10,K43T,1.07
11,K43P,-0.2
12,K43Q,0.615
